Reference: patent publication US6589738B1, “Genes essential for microbial proliferation and antisense thereto” (priority 1999, dated 2003)
Values after ≈ are worked out from the molar mass of the structure shown.

Columns and labels:
[1] = test system: Bacterial cells containing IPTG-inducible antisense nucleic acid against rplL and rplJ (50S ribosomal subunit proteins); assay: microbe, parasite or virus in culture; format: cell-based, E. coli; conditions: Escherichia coli, read-out: IC50 (+IPTG)
Procedure: Antibiotics of various chemical classes and modes of action were purchased from Sigma Chemicals (St. Louis, Mo.). Stock solutions were prepared by dissolving each antibiotic in an appropriate aqueous solution based on information provided by the manufacturer. The final working solution of each antibiotic contained no more than 0.2% (w/v) of any organic solvent. To determine their potency against a bacterial strain engineered for expression of an antisense against a proliferation-required gene encoding 50S ribosomal protein, each antibiotic was serially diluted two or three fold in growth medium supplemented with the appropriate antibiotic for maintenance of the anti-sense construct. […]
Cells for the assay were prepared as follows. […] The plate was then loaded into a plate reader, incubated at constant temperature, and cell growth was monitored in each well by the measurement of light scattering at 595 nm. Growth was monitored every 5 minutes until the cell culture attained a stationary growth phase. For each concentration of antibiotic, a percentage inhibition of growth was calculated at the time point corresponding to mid-exponential growth for the associated control wells (no antibiotic, plus or minus IPTG). For each antibiotic and condition (plus or minus IPTG), a plot of percent inhibition versus log of antibiotic concentration was generated and the IC50 determined.

Escherichia coli = assay: Growth inhibition after IPTG induction of antisense RNA expression (Example 1; score of Example 12); format: cell-based; conditions: for effect of antisense expression on E. coli growth: 1 mM IPTG
Procedure: (§1) To study the effects of transcriptional induction in liquid medium, growth curves were carried out by back diluting cultures 1:200 into fresh media with or without 1 mM IPTG and measuring the OD450 every 30 minutes (min). To study the effects of transcriptional induction on solid medium, 10^2, 10^3, 10^4, 10^5, 10^6, 10^7 and 10^8 fold dilutions of overnight cultures were prepared. Aliquots of from 0.5 to 3 μl of these dilutions were spotted on selective agar plates with or without 1 mM IPTG. After overnight incubation, the plates were compared to assess the sensitivity of the clones to IPTG.
Of the numerous clones tested, some clones were identified as containing a sequence that inhibited E. coli growth after IPTG induction. Accordingly, the gene to which the inserted nucleic acid sequence corresponds, or a gene within the operon containing the inserted nucleic acid, may be required for proliferation in E. coli.
(§2) Molecule No. EcXA059, encoding a portion of the ypjA gene of Escherichia coli, was either transformed directly into Enterobacter cloacae, Salmonella typhimurium and/or Klebsiella pneumoniae or subcloned into an expression vector functional in these species and the subclones transformed into these organisms. Suitable expression vectors are well known in the art. These expression vectors were introduced into Enterobacter cloacae, Salmonella typhimurium and/or Klebsiella pneumoniae cells that were then assayed for growth inhibition according to the method of Example 1. After growth in liquid culture, cells were plated at various serial dilutions and a score determined by calculating the log difference in growth for INDUCED vs. UNINDUCED antisense RNA expression as determined by the maximum 10 fold dilution at which a colony was observed. If there was no effect of antisense RNA expression in one organism, the clone is given a score of zero “0” in that organism. In contrast, a score of “8” means that 10^8 times more cells were required to observe a colony formed on the induced state than in the non-induced state under the conditions used and in that organism.

Klebsiella pneumoniae = assay: Growth inhibition by E. coli antisense nucleic acids in another microorganism, INDUCED vs. UNINDUCED (Example 12, Table V); format: cell-based; conditions: for Sensitivity of K. pneumoniae to antisense nucleic acid (growth inhibition, INDUCED vs. UNINDUCED): antisense RNA expression induced with IPTG, serial dilution plating
Procedure: as §1, §2
(§3) Expression vectors which inhibited growth of E. coli upon induction of antisense RNA expression with IPTG were transformed directly into Enterobacter cloacae, Klebsiella pneumonia or Salmonella typhimurium. The transformed cells were then assayed for growth inhibition according to the method of Example 1. After growth in liquid culture, cells were plated at various serial dilutions and a score determined by calculating the log difference in growth for INDUCED vs. UNINDUCED antisense RNA expression as determined by the maximum 10 fold dilution at which a colony was observed. If there was no effect of antisense RNA expression in a microorganism, the clone is minus in Table V below. In contrast, a positive in Table V below means that at least 10 fold more cells were required to observe a colony on the induced plate than on the non-induced plate under the conditions used and in that microorganism.

Salmonella typhimurium = assay: as above; format: cell-based; conditions: for Sensitivity of S. typhimurium to antisense nucleic acid (growth inhibition, INDUCED vs. UNINDUCED): antisense RNA expression induced with IPTG, serial dilution plating
Procedure: as §1, §2, §3

Enterobacter cloacae = assay: as above; format: cell-based; conditions: for Sensitivity of E. cloacae to antisense nucleic acid (growth inhibition, INDUCED vs. UNINDUCED): antisense RNA expression induced with IPTG, serial dilution plating
Procedure: as §1, §2, §3

With `NC[C@H]1O[C@H](O[C@H]2[C@H](O)[C@@H](O[C@H]3O[C@H](CO)[C@@H](O)[C@H](N)[C@H]3O)[C@H](N)C[C@@H]2N)[C@H](N)C[C@@H]1O` [Tobramycin] the IC50 [1] was 0.0705 µg/mL (≈ 0.151 µM).

B1: EcXA062: antisense clone insert, E. coli gene rep (nucleic acid, listed as Escherichia coli)
DNA: CGCGTGGAGAGTCATCAGTTGCACCTGATCCAGCTCTTCTTCACTCTCACCACGCTCNATCATGTCGCGCAAAGTAAAGCGCGTCACCACCTGGGTGAGCGTCATCGGCTCATCCAGTTCACTGCCTTCCAGCATCTCCGTCATCCAGCTAAACAGTTGGTTGACGTTCTTCATGCGCATTTCGGCGGCTTTCGGGCTGGGCGATGTTTCGTACAGCCAGGATTCATAATCCATGCCATGGATCAGATCACGCACCGCGGCAATCGGCTCCCGCTCCGCCAGACGCTGGATTTCTGCCAACCAGTGAGTGAAGCGGGTCAATGCTTCA
modifications: misc_feature (1)...(328): n = A,T,C or G
notes: antisense clone insert, E. coli gene rep
In the case of B1, the “effect of antisense expression on E. coli growth” value (“effect of antisense expression” for short) (Escherichia coli) is reported as “reduction in cell growth”.

B2: EcXA072: antisense clone insert, E. coli gene recJ (nucleic acid, listed as Escherichia coli)
DNA: GATTTTTACCGGATTAATTTTAAACATGGTCTGATTTCTTTTATTGAGCTAGTCAAAATGCGGTGATAAGAGCGGGATTGTCCCAATCCACGCTCTTTTTTATAGAGAAGATGACGCTAAATTGGCCAGATATTGTCGATGATAATTTG
For B2, the “Sensitivity of K. pneumoniae to antisense nucleic acid (growth inhibition, INDUCED vs. UNINDUCED)” value (Klebsiella pneumoniae) was “+ (a positive in Table V below means that at least 10 fold more cells were required to observe a colony on the induced plate than on the non-induced plate)”, the “Sensitivity of S. typhimurium to antisense nucleic acid (growth inhibition, INDUCED vs. UNINDUCED)” value (Salmonella typhimurium) was “+ (a positive in Table V below means that at least 10 fold more cells were required to observe a colony on the induced plate than on the non-induced plate)” and the “effect of antisense expression” value (Escherichia coli) was “reduction in cell growth”.

B3: EcXA082: antisense clone insert, E. coli genes hybC; hybB (nucleic acid, listed as Escherichia coli)
DNA: TGCTTTGCTCGCCTCATGACGATTATGATCGTTTTGTTTTAAAGGAGGAAGTATCGGCAGTAGACGAATGAGTACGATGTAAGCGCAAATCTCAATAGCCACAAAACCAATAGAAATCAACAGTTCTTCCCAGGTCGGGAAGTA
In the case of B3, the “Sensitivity of E. cloacae to antisense nucleic acid (growth inhibition, INDUCED vs. UNINDUCED)” value (Enterobacter cloacae) is reported as “+ (a positive in Table V below means that at least 10 fold more cells were required to observe a colony on the induced plate than on the non-induced plate)” and the “effect of antisense expression” value (Escherichia coli) is reported as “reduction in cell growth”.

B4: EcXA083: antisense clone insert, E. coli gene hrpB (nucleic acid, listed as Escherichia coli)
DNA: CGGCTTAGCGCGTCGTTGGCATCGAGCATCGCTCCCATGCCGTTTGCCAGTTGATAGCGTCCATCTTGCC
For B4, the “effect of antisense expression” value (Escherichia coli) was “reduction in cell growth”.

B5: EcXA104: antisense clone insert, E. coli gene hsdS (nucleic acid, listed as Escherichia coli)
DNA: GACGCGGCGAACGATTTCGGCTTGTTCTTTTACTGGAGGTAATAAAACAACTTGGGATTTGATATCTTTTCCTGAAATACCTTTTTGACCAGAAGTTGTTTTCACGCAGTTCATCATTGCATTTCGTGCTGAGGGGGATGAAAAAAATATTTCGATATATTCTGGTAAAGCATCTTT
B5 was tested, and the “Sensitivity of K. pneumoniae to antisense nucleic acid (growth inhibition, INDUCED vs. UNINDUCED)” value (Klebsiella pneumoniae) was “+ (a positive in Table V below means that at least 10 fold more cells were required to observe a colony on the induced plate than on the non-induced plate)”, the “Sensitivity of S. typhimurium to antisense nucleic acid (growth inhibition, INDUCED vs. UNINDUCED)” value (Salmonella typhimurium) was “+ (a positive in Table V below means that at least 10 fold more cells were required to observe a colony on the induced plate than on the non-induced plate)” and the “Sensitivity of E. cloacae to antisense nucleic acid (growth inhibition, INDUCED vs. UNINDUCED)” value (Enterobacter cloacae) was “+ (a positive in Table V below means that at least 10 fold more cells were required to observe a colony on the induced plate than on the non-induced plate)”. For the same molecule, the “effect of antisense expression” value (Escherichia coli) was “reduction in cell growth”.

B6: EcXA059: antisense clone insert encoding a portion of the ypjA gene of Escherichia coli (nucleic acid, listed as Escherichia coli)
DNA: NACCANGANTGGGACCCAAATGAAAATTGAACTGAAGATTACAATCAATTTAACANCAAGTTACACAACCAATTCAGACTCCGCCAGCCCACCAATCATGATTGGACGGTGTAAGGACAACACCAACAAAAACAGGAAGTTAGAAGTCTNAGCAAAACACCGACCAGACGGTGAGGAGACATAAAAGGATACGCAAAGGAGCCGCGGCTCCTGGTAACATGAAAGCCCACAGATGTGGGCTTTTTCGTTGATGGTCAGAACGACCAGTTCACACCAGCTACCGCGTTCCACGGGGATTCCACACCGGCACTATGGCTATACCCCACCCCAAGATGCCCGCTTAACGTACTGCTGAATGAGGCTTTAATACCTGCCTGGTATATTCCACGTCTGCCCGACAAATAATTGACGAAATTACCGNCACTATTCACTTTCACCCGGTTATCATCGACAAATTCTTTGCGCACAAGCCGNCTTCAGCCACGGNTCAACTTCCATACCGNTCCCCAGACGCATGTTGTAACTCAACGTTGCGCCCAGTTCACGATATATACTGCGGGTATCGACTGATTTCGATTTCATGCCATTGGATAAATGATATTCGGGGTTATCAGCGGTGAAACCCGTTNACGATGCATACNGGGTCAGGGTTCAATTACCATCGGTAAATCGCATTCCCGGTTTCAATGTGACCGCCAANCCCGTTGCTGTNGGTAACTGGCATTGGCGGGTTCANCGGTGGTAATTTTAACCTGGTACGNTACTTTTAAAACGGGTTAAGCTTTACCGAANACCGTNCANNATTGGAAACCCNCTTTTAATGGTTNCCCAACTNGGNN
modifications: misc_feature (1)...(839): n = A,T,C or G
notes: antisense clone insert encoding a portion of the ypjA gene of Escherichia coli
B6 was tested, and the “Sensitivity of K. pneumoniae to antisense nucleic acid (growth inhibition, INDUCED vs. UNINDUCED)” value (Klebsiella pneumoniae) was “+ (a positive in Table V below means that at least 10 fold more cells were required to observe a colony on the induced plate than on the non-induced plate)”, the “score (log difference in growth for INDUCED vs. UNINDUCED antisense RNA expression)” value (Klebsiella pneumoniae; Klebsiella pneumoniae, IPTG induction) was over 7 and the “Sensitivity of S. typhimurium to antisense nucleic acid (growth inhibition, INDUCED vs. UNINDUCED)” value (Salmonella typhimurium) was “+ (a positive in Table V below means that at least 10 fold more cells were required to observe a colony on the induced plate than on the non-induced plate)”. For the same molecule, the “score (log difference in growth for INDUCED vs. UNINDUCED antisense RNA expression)” value (Salmonella typhimurium; Salmonella typhimurium, IPTG induction) was 8, the “Sensitivity of E. cloacae to antisense nucleic acid (growth inhibition, INDUCED vs. UNINDUCED)” value (Enterobacter cloacae) was “+ (a positive in Table V below means that at least 10 fold more cells were required to observe a colony on the induced plate than on the non-induced plate)” and the “score (log difference in growth for INDUCED vs. UNINDUCED antisense RNA expression)” value (Enterobacter cloacae; Enterobacter cloacae, IPTG induction) was 8. The “score (log difference in growth for INDUCED vs. UNINDUCED antisense RNA expression)” value (Escherichia coli; Escherichia coli, maximum 10 fold dilution at which a colony was observed) was 8.
